Assay: Thermal stability by differential scanning calorimetry (DSC)
Format: physicochemical
Settings: 0.4 mg/mL in PBS
Protocol: The thermal stability of the humanized antibody variants was assessed by differential scanning calorimetry (DSC) as described below.
400 μL of purified samples primarily at concentrations of 0.4 mg/mL in PBS were used for DSC analysis with a VP-Capillary DSC (Malvern Panalytical Inc., Westborough, MA). At the start of each DSC run, 5 buffer blank injections were performed to stabilize the baseline, and a buffer injection was placed before each sample injection for referencing. Each sample was scanned from 20° C. to 100° C. at a 60° C./hr rate, with low feedback, 8 sec filter, 3 min pre-scan thermostat, and 70 psi nitrogen pressure. The resulting thermograms were referenced and analyzed using Origin 7 software (OriginLab Corporation, Northampton, MA) to determine melting temperature (Tm) as an indicator of thermal stability.

| Molecule | Fab Tm |
| --- | --- |
| v29453: "Representative humanized antibody variants ... of the mouse antibody" that specifically binds hNaPi2b (antibody, V domains shown, v29449, v29453, v29457 H4; v29453, v29454, v29455, v29456 L2) VH: QVQLVQSGAEVKKPGASVKMSCKASGFTFTSYNVHWVRQAPGQGLEWIAAISPGNGDLSYAQKFQGRATLTVDRSTSTAYMELSSLRSEDTAVYYCARGRTGMGAVDYWGQGTLVTVSS VL: DVQMTQSPSSLSASVGDRVTITCRASQDVYSYLNWYQQKPGKAVKLLIYYTSRLQSGVPSRFSGSGSGTDYTLTISSLQPEDFATYYCQQYNIFPWTFGQGTKLEIK | 78.9 °C |
| v29449: "Representative humanized antibody variants ... of the mouse antibody" that specifically binds hNaPi2b (antibody, V domains shown, v29449, v29453, v29457 H4; v29449 L3) VH: QVQLVQSGAEVKKPGASVKMSCKASGFTFTSYNVHWVRQAPGQGLEWIAAISPGNGDLSYAQKFQGRATLTVDRSTSTAYMELSSLRSEDTAVYYCARGRTGMGAVDYWGQGTLVTVSS VL: DVQMTQSPSSLSASVGDRVTITCRASQDVYSYLNWYQQKPGKAVKLLIYYTSRLQSGVPSRFSGSGSGTDYTLTISSLQPEDIATYYCQQYNIFPWTFGQGTKLEIK | 80.0 °C |
| v29460: "Representative humanized antibody variants ... of the mouse antibody" that specifically binds hNaPi2b (antibody, V domains shown, v29452, v29460 H1; v29457, v29458, v29459, v29460 L1) VH: QVQLVQSGAEVKKPGASVKVSCKASGFTFTSYNVHWVRQAPGQGLEWMGAISPGNGDLSYAQKFQGRVTMTRDTSTSTVYMELSSLRSEDTAVYYCARGRTGMGAVDYWGQGTLVTVSS VL: DIQMTQSPSSLSASVGDRVTITCRASQDVYSYLNWYQQKPGKAPKLLIYYTSRLQSGVPSRFSGSGSGTDFTLTISSLQPEDFATYYCQQYNIFPWTFGQGTKLEIK | 80.3 °C |
| v29457: "Representative humanized antibody variants ... of the mouse antibody" that specifically binds hNaPi2b (antibody, V domains shown, v29449, v29453, v29457 H4; v29457, v29458, v29459, v29460 L1) VH: QVQLVQSGAEVKKPGASVKMSCKASGFTFTSYNVHWVRQAPGQGLEWIAAISPGNGDLSYAQKFQGRATLTVDRSTSTAYMELSSLRSEDTAVYYCARGRTGMGAVDYWGQGTLVTVSS VL: DIQMTQSPSSLSASVGDRVTITCRASQDVYSYLNWYQQKPGKAPKLLIYYTSRLQSGVPSRFSGSGSGTDFTLTISSLQPEDFATYYCQQYNIFPWTFGQGTKLEIK | 80.5 °C |
| v29459: "Representative humanized antibody variants ... of the mouse antibody" that specifically binds hNaPi2b (antibody, V domains shown, v29451, v29455, v29459 H2; v29457, v29458, v29459, v29460 L1) VH: QVQLVQSGAEVKKPGASVKVSCKASGFTFTSYNVHWVRQAPGQGLEWIAAISPGNGDLSYAQKFQGRVTMTVDTSTSTVYMELSSLRSEDTAVYYCARGRTGMGAVDYWGQGTLVTVSS VL: DIQMTQSPSSLSASVGDRVTITCRASQDVYSYLNWYQQKPGKAPKLLIYYTSRLQSGVPSRFSGSGSGTDFTLTISSLQPEDFATYYCQQYNIFPWTFGQGTKLEIK | 83.1 °C |
| v29454: "Representative humanized antibody variants ... of the mouse antibody" that specifically binds hNaPi2b (antibody, V domains shown, v29450, v29454, v29458 H3; v29453, v29454, v29455, v29456 L2) VH: QVQLVQSGAEVKKPGASVKMSCKASGFTFTSYNVHWVRQAPGQGLEWIAAISPGNGDLSYAQKFQGRATLTVDTSTSTAYMELSSLRSEDTAVYYCARGRTGMGAVDYWGQGTLVTVSS VL: DVQMTQSPSSLSASVGDRVTITCRASQDVYSYLNWYQQKPGKAVKLLIYYTSRLQSGVPSRFSGSGSGTDYTLTISSLQPEDFATYYCQQYNIFPWTFGQGTKLEIK | 79.7 °C |
| v29455: "Representative humanized antibody variants ... of the mouse antibody" that specifically binds hNaPi2b (antibody, V domains shown, v29451, v29455, v29459 H2; v29453, v29454, v29455, v29456 L2) VH: QVQLVQSGAEVKKPGASVKVSCKASGFTFTSYNVHWVRQAPGQGLEWIAAISPGNGDLSYAQKFQGRVTMTVDTSTSTVYMELSSLRSEDTAVYYCARGRTGMGAVDYWGQGTLVTVSS VL: DVQMTQSPSSLSASVGDRVTITCRASQDVYSYLNWYQQKPGKAVKLLIYYTSRLQSGVPSRFSGSGSGTDYTLTISSLQPEDFATYYCQQYNIFPWTFGQGTKLEIK | 81.5 °C |
| v29458: "Representative humanized antibody variants ... of the mouse antibody" that specifically binds hNaPi2b (antibody, V domains shown, v29450, v29454, v29458 H3; v29457, v29458, v29459, v29460 L1) VH: QVQLVQSGAEVKKPGASVKMSCKASGFTFTSYNVHWVRQAPGQGLEWIAAISPGNGDLSYAQKFQGRATLTVDTSTSTAYMELSSLRSEDTAVYYCARGRTGMGAVDYWGQGTLVTVSS VL: DIQMTQSPSSLSASVGDRVTITCRASQDVYSYLNWYQQKPGKAPKLLIYYTSRLQSGVPSRFSGSGSGTDFTLTISSLQPEDFATYYCQQYNIFPWTFGQGTKLEIK | 81.6 °C |
